In patent US7820412 one finds binding signal (fold selectivity) data, which are given here for one substance.

The subject of this data set is MutS (MBP-MutS-H6 fusion) (Thermus aquaticus). Description: pulldown. The following applies: MutS selectivity factor M estimated by model from consensus shuffling error rates; 20 mM Tris-HCl pH 7.8, 10 mM NaCl, 5 mM MgCl2, 1 mM DTT, 5% glycerol, room ….

Consider “re-hybridized GFPuv fragments (average 150 bp) containing synthesis-error mismatches”, for which the binding signal (fold selectivity) was 2.2.
